According to the supplement of paper PMC10065799, “High-throughput profiling of sequence recognition by tyrosine kinases and SH2 domains using bacterial peptide display” (eLife, 2023):

Columns and labels:
AncSZ = test: phosphorylation enrichment, bacterial display (enrichment ratio); higher = better substrate or ligand; peptides without Tyr show the background
EPHB1 = EPHB1 (UniProt P54762); test: as above
EPHB2 = EPHB2 (UniProt P29323); test: as above
FGFR1 = FGFR1 (UniProt P11362); test: as above
Sequence of FGFR1 (P11362 whole entry, looked up): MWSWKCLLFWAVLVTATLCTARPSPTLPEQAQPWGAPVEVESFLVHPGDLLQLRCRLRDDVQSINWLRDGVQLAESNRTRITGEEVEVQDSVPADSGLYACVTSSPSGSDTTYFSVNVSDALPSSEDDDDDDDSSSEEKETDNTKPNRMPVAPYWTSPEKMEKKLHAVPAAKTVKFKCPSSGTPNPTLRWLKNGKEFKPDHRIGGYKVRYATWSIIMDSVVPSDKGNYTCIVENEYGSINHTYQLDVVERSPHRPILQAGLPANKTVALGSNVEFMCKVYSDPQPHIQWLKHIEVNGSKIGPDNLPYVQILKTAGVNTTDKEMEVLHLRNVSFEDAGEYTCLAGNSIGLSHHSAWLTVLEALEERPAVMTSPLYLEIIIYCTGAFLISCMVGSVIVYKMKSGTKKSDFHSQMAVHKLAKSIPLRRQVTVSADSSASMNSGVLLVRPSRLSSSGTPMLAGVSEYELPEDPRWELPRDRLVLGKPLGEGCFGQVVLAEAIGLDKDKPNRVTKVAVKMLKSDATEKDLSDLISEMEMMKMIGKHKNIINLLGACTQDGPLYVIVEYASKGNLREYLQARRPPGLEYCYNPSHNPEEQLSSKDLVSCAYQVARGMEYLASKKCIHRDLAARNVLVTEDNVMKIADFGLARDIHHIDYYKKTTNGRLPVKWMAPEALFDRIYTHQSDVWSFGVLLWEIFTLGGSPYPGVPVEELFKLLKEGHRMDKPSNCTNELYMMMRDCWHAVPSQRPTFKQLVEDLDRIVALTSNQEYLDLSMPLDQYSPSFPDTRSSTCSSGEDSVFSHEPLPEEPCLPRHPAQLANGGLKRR

FGFR3 = FGFR3 (UniProt P22607); test: as above
Sequence of FGFR3 (P22607 whole entry, looked up): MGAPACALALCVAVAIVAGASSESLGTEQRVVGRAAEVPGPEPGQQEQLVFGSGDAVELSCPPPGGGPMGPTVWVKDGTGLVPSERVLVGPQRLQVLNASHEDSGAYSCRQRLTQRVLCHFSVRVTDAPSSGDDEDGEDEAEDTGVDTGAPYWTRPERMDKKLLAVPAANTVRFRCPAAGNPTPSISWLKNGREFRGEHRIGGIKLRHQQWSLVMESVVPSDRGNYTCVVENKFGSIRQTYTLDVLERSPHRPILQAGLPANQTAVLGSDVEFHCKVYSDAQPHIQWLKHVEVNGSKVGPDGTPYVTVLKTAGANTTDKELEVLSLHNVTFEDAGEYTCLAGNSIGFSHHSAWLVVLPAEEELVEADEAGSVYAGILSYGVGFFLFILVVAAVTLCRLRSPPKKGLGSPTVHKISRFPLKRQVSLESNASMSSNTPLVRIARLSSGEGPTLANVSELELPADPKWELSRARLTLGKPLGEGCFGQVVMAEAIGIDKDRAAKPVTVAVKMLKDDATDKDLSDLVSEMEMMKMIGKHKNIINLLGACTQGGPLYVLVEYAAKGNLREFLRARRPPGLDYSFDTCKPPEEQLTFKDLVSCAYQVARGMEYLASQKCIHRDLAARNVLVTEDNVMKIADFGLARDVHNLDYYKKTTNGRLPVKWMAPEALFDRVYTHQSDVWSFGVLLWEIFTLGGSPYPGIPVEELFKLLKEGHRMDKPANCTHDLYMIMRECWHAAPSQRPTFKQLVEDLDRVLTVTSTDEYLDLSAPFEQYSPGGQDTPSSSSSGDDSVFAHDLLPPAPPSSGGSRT

Fer (mouse) = test: as above
Fes = Fes (UniProt P07332); test: as above
Sequence of Fes (P07332 whole entry, looked up): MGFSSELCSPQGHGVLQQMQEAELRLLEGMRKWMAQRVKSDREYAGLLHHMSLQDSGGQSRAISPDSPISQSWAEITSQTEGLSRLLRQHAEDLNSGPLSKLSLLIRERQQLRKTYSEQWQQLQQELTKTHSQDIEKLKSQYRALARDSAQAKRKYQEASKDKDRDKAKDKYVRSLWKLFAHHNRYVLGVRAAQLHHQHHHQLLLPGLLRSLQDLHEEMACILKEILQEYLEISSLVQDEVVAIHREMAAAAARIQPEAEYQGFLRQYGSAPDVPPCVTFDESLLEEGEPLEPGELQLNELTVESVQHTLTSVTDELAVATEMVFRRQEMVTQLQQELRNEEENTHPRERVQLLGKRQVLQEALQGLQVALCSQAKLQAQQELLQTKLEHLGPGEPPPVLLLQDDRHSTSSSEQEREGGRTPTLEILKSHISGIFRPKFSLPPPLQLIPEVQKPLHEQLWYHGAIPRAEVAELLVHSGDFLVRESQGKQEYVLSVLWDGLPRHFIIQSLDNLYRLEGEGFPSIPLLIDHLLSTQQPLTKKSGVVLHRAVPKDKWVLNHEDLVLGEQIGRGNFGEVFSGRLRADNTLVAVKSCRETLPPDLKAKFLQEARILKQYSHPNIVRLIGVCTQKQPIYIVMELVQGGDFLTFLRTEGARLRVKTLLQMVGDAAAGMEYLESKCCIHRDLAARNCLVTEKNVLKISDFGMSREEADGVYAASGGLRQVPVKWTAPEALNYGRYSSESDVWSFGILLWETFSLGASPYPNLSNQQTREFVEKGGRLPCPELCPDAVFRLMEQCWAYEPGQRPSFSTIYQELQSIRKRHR

Fyn = Fyn (UniProt P06241); test: as above
Sequence of Fyn (P06241 whole entry, looked up): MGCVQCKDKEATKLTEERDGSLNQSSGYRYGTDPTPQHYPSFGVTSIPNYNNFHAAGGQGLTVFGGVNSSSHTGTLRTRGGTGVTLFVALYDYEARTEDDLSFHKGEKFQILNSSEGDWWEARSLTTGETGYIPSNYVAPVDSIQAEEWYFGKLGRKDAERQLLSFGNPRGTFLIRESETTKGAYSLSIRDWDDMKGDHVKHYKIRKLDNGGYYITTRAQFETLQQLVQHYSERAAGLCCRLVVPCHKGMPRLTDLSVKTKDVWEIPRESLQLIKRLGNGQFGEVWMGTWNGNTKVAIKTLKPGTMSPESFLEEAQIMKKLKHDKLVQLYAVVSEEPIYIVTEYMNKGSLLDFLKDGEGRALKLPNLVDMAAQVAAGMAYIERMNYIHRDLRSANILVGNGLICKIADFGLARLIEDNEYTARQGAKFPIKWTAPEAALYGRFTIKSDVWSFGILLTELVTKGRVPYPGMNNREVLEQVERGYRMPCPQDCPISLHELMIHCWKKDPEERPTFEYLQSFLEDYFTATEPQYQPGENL

Hck = Hck (UniProt P08631); test: as above
Jak2 = Jak2 (UniProt O60674); test: as above
Sequence of Jak2 (O60674 whole entry, looked up): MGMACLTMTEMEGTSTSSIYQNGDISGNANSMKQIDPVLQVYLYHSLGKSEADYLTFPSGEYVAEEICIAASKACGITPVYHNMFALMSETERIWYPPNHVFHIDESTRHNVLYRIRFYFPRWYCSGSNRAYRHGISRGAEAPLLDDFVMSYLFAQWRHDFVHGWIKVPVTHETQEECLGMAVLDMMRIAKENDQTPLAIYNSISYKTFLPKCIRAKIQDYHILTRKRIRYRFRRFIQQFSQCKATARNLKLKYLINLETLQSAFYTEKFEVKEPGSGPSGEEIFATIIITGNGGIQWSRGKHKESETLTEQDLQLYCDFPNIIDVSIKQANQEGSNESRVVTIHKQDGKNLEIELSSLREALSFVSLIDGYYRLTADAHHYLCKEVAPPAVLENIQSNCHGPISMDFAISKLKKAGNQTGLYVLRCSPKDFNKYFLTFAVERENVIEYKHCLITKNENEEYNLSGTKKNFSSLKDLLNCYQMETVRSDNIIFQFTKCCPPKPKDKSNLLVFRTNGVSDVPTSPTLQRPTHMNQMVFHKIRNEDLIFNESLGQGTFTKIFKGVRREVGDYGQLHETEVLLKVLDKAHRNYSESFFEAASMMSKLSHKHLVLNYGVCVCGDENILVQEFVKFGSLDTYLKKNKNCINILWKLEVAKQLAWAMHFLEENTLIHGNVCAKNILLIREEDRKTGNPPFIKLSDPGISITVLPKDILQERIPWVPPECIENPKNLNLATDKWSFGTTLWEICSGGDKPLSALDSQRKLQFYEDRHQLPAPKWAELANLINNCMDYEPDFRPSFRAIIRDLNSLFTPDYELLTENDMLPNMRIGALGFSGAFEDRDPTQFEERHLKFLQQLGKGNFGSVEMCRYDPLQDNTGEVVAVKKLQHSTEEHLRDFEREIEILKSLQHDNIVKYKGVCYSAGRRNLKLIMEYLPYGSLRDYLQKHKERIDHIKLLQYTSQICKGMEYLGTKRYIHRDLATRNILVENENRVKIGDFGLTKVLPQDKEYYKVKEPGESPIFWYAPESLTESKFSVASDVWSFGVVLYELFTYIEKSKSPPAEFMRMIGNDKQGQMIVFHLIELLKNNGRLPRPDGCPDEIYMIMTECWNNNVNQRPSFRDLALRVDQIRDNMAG

MERTK = MERTK (UniProt Q12866); test: as above
c-Abl (mouse) = test: as above
c-Src = test: as above
Grb2 SH2 = Grb2 SH2 (UniProt P62993); test: SH2 binding enrichment of the phosphorylated peptide, bacterial display (enrichment ratio); higher = better substrate or ligand; peptides without Tyr show the background
SHP2-C SH2 = test: as above
c-Src SH2 = test: as above
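Wherever SH2 binding enrichment of the phosphorylated peptide, bacterial display is given: peptide library displayed on the E. coli surface as eCPX fusions, selected cells deep-sequenced, score is each peptide's frequency after selection divided by its frequency in the input.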
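Wherever phosphorylation enrichment, bacterial display is given: 11-residue human phosphosite peptides and single-mutation variants displayed on the E. coli surface, counted by deep sequencing, each peptide's frequency after selection divided by its frequency in the unselected input library; frequency after pTyr selection over input frequency; kinase dosed for 20-30% of maximal phosphorylation in three min.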

Sequence of EPHB1 (P54762 whole entry, looked up): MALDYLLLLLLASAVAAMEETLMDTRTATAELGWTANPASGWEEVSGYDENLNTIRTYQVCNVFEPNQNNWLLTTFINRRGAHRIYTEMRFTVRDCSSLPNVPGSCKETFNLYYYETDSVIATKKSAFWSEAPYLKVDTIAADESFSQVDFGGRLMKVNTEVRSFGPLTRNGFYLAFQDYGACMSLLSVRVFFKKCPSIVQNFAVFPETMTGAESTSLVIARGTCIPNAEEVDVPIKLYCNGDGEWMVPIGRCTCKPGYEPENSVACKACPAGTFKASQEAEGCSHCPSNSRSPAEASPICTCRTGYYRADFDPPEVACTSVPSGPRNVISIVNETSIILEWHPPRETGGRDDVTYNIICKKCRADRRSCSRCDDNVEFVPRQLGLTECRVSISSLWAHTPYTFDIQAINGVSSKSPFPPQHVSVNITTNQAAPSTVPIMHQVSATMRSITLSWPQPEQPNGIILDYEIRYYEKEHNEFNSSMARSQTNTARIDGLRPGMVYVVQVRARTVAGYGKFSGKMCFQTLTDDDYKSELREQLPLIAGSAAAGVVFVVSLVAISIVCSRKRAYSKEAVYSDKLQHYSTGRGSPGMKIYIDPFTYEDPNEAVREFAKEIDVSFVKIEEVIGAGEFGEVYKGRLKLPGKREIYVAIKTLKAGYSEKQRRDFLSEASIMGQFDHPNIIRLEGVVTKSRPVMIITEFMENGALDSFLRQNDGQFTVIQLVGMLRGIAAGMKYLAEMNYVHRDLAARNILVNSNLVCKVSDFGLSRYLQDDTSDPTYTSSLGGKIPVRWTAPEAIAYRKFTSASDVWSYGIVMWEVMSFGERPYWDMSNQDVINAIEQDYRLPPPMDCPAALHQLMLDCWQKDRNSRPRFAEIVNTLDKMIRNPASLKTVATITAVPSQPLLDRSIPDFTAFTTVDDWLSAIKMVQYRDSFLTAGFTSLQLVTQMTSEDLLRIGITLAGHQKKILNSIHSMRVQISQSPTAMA

Sequence | phosphorylation enrichment (AncSZ) | phosphorylation enrichment (EPHB1) | phosphorylation enrichment (EPHB2) | phosphorylation enrichment (FGFR1) | phosphorylation enrichment (FGFR3) | phosphorylation enrichment (Fer (mouse)) | phosphorylation enrichment (Fes) | phosphorylation enrichment (Fyn) | phosphorylation enrichment (Hck) | phosphorylation enrichment (Jak2) | phosphorylation enrichment (MERTK) | phosphorylation enrichment (c-Abl (mouse)) | phosphorylation enrichment (c-Src) | SH2 binding enrichment (Grb2 SH2) | SH2 binding enrichment (SHP2-C SH2) | SH2 binding enrichment (c-Src SH2)
DAICYYRMENA [NPHS2_Y195] | 2.23 | 0.866 | 0.795 | 7.73 | 6.5 | 0.736 | 1.44 | 1.34 | 1.11 | 6.63 | 1.28 | 1.03 | 3.12 | 0.952 | 0.799 | 0.641
DLVSEYQQFQD [TUBB3_Y422_YF] | 1.52 | 0.721 | 0.662 | 0.671 | 1.01 | 0.58 | 1.33 | 0.675 | 0.643 | 1.25 | 0.511 | 0.8 | 0.657 | 0.918 | 0.687 | 0.598
VIESSYQVAKA [CPT1B_Y534] | 0.7 | 0.454 | 0.483 | 0.489 | 0.404 | 0.448 | 0.815 | 0.457 | 0.577 | 0.535 | 0.44 | 0.558 | 0.483 | 0.906 | 0.782 | 0.537
SVTCTYSPAPN [TP53_Y126_L130P] | 1.12 | 0.517 | 0.581 | 0.495 | 0.83 | 0.503 | 1.14 | 0.435 | 0.501 | 0.999 | 0.362 | 0.776 | 0.509 | 0.635 | 0.554 | 0.425
LFQAKYQIRFR [CRLF1_Y272_YF] | 1.83 | 0.698 | 0.69 | 1.03 | 1.35 | 0.972 | 1.6 | 0.643 | 0.524 | 1.64 | 0.868 | 1.31 | 1.02 | 1.19 | 1.32 | 0.813
SGVSYYINLCQ [IGF2R_Y2025_N2020S] | 1.01 | 0.682 | 0.635 | 0.543 | 0.824 | 1.03 | 1.5 | 0.38 | 0.51 | 1.32 | 0.316 | 0.803 | 0.33 | 0.743 | 0.642 | 0.531
RGKEPYTKKAL [TTC21B_Y160] | 0.815 | 0.596 | 0.698 | 0.568 | 0.522 | 0.299 | 1.01 | 0.438 | 0.436 | 0.773 | 0.724 | 0.933 | 0.829 | 0.785 | 0.78 | 0.651
AKRKGYDMRVD [NEB_Y2770] | 0.459 | 0.295 | 0.339 | 0.292 | 0.297 | 0.358 | 0.477 | 0.47 | 0.355 | 0.431 | 0.394 | 0.42 | 0.363 | 0.755 | 0.728 | 0.464
NPPGMYPVTGP [LPP_Y346] | 0.649 | 0.375 | 0.325 | 0.394 | 0.396 | 0.649 | 0.531 | 0.336 | 0.375 | 0.482 | 0.348 | 0.506 | 0.389 | 0.638 | 0.547 | 0.418
ATRDVYNPFET [SCAMP3_Y41_L38R] | 0.835 | 0.454 | 0.454 | 0.54 | 0.598 | 0.457 | 1.03 | 1.08 | 1.06 | 0.901 | 0.485 | 0.617 | 1.48 | 0.703 | 0.658 | 0.427
AGQEDDDRLRP [RAC1_Y64_Y64D] | 1.15 | 0.497 | 0.669 | 0.607 | 0.637 | 0.572 | 1.28 | 0.608 | 0.591 | 1.12 | 0.439 | 0.703 | 0.46 | 0.867 | 1.28 | 0.528
RASDYYSQQMA [GBP6_Y334_A331S] | 0.891 | 0.966 | 0.585 | 2.42 | 1.89 | 0.402 | 0.744 | 0.422 | 0.611 | 0.571 | 0.581 | 0.458 | 0.41 | 0.887 | 0.651 | 0.521
DNEALYDICFC [TUBB3_Y208_R213C] | 6.01 | 4.22 | 5.33 | 0.748 | 0.992 | 12.5 | 1.73 | 7.33 | 5.92 | 1.46 | 8.05 | 2.07 | 6.25 | 0.865 | 0.8 | 0.714
AAVNGYAFGGG [ECHS1_Y137] | 0.495 | 0.347 | 0.389 | 0.435 | 0.406 | 0.473 | 0.553 | 0.423 | 0.344 | 0.521 | 0.324 | 0.548 | 0.379 | 0.75 | 0.647 | 0.455
TSSAVYMNLAS [GATAD2B_Y317_I316V] | 0.759 | 1.67 | 0.65 | 1.31 | 1.09 | 0.818 | 0.83 | 3.21 | 4.17 | 0.776 | 3.69 | 0.755 | 3.04 | 7.6 | 1.78 | 1.88
GLVFLYMEKNQ [PRELP_Y156] | 0.932 | 0.607 | 0.523 | 0.339 | 0.719 | 0.635 | 1.18 | 0.304 | 0.337 | 1.17 | 0.262 | 0.854 | 0.37 | 0.979 | 0.873 | 0.634
VIEYSYTSADG [DHCR7_Y382_C380Y] | 1.34 | 0.699 | 0.633 | 0.711 | 0.82 | 0.538 | 1.19 | 0.497 | 0.557 | 0.897 | 0.365 | 0.686 | 0.536 | 0.927 | 3.63 | 6.21
FAELMYTGFWH [ASS1_Y322_V321M] | 2.17 | 3.52 | 4.76 | 2.32 | 2.02 | 5.42 | 1.67 | 6.85 | 4.7 | 2.02 | 7.12 | 3.16 | 6.43 | 0.918 | 0.816 | 0.538
DKEKWYPLGNS [PIK3C2G_Y1438] | 0.762 | 0.43 | 0.441 | 0.384 | 0.569 | 0.422 | 0.868 | 0.366 | 0.372 | 0.681 | 0.292 | 0.488 | 0.345 | 0.83 | 1.11 | 0.44
KRLAVYIDEEA [EPM2A_Y304_P301L] | 1.11 | 0.665 | 0.615 | 0.514 | 0.837 | 0.524 | 1.14 | 0.601 | 0.496 | 1.23 | 0.484 | 0.781 | 0.578 | 0.85 | 0.486 | 0.507
KDAGDYKYKAK [LRIT3_Y326_C328Y] | 0.398 | 0.353 | 0.366 | 0.337 | 0.387 | 0.256 | 0.604 | 0.308 | 0.346 | 0.519 | 0.32 | 0.571 | 0.319 | 0.68 | 0.515 | 0.415
PEADKYCLTYA [FGG_Y300_R301C] | 1.27 | 0.722 | 0.599 | 0.486 | 1.09 | 0.735 | 1.2 | 0.691 | 0.601 | 1.38 | 0.477 | 0.917 | 0.821 | 0.882 | 0.778 | 0.687
QSSALYEDRYL [ASS1_Y83] | 1.15 | 3.12 | 2.45 | 0.56 | 0.74 | 7.79 | 1.12 | 0.997 | 4.44 | 1.01 | 1.1 | 0.61 | 1.2 | 0.711 | 0.493 | 0.653
ANVKWYRNGRE | 0.867 | 0.509 | 0.578 | 0.409 | 0.485 | 0.457 | 0.738 | 0.43 | 0.484 | 0.665 | 0.468 | 0.479 | 0.485 | 0.658 | 0.487 | 0.512
RPSELYFSKIS [SMG1_Y2253_G2258S_YF] | 0.933 | 2 | 1.05 | 1.22 | 1.1 | 0.724 | 1.4 | 1.4 | 2.85 | 1.06 | 0.886 | 0.834 | 0.691 | 0.741 | 0.702 | 0.758
SVVVPYEPPED [TP53_Y220_V225D] | 1.31 | 0.607 | 0.641 | 0.545 | 0.759 | 0.549 | 1.4 | 0.479 | 0.544 | 1.15 | 0.441 | 0.772 | 0.491 | 0.874 | 0.778 | 0.769
LQTYRYHGHSM [PDHA1_Y289] | 0.52 | 0.489 | 0.337 | 0.323 | 0.395 | 0.455 | 0.513 | 0.414 | 0.288 | 0.569 | 0.698 | 0.411 | 0.285 | 0.879 | 0.646 | 0.561
AAGGRYDGLVG [HARS1_Y363] | 0.677 | 0.357 | 0.351 | 0.291 | 0.48 | 0.306 | 0.615 | 0.346 | 0.351 | 0.489 | 0.378 | 0.538 | 0.348 | 0.806 | 0.514 | 0.505
QMVGMYASSYM [AVPR2_Y124] | 1.27 | 1.21 | 1.09 | 0.611 | 0.783 | 1.07 | 1.07 | 1.11 | 1.3 | 0.659 | 2.74 | 0.921 | 1.45 | 0.806 | 0.946 | 1.23
